Test [1] has as its target T1, ephrin B2-Fc (extracellular region of ephrin B2 fused to the Fc domain of human IgG, expressed in mammalian … (human)).
T1 construct: extracellular domain; Antigen used for panning, ELISA and Biacore; also called extracellular region of the ephrin B2
Kind of test: SPR (Biacore X), ephrin B2-Fc immobilised on CM5 chip, scFv at 0.4, 0.2, 0.1, 0.05 uM, Langmuir 1:1 model. Here is the method: (§1) The two selected scFv, B11 and 2B1, were characterized using various techniques. First we determined the antibodies affinity constants to the ephrin B2 by means of surface plasmon resonance technique on a Biacore X, with the extracellular region of the immobilized ephrin B2 and different dilutions of purified scFv. […] Then, it was analyzed, using the same technique, the capacity of the antibodies to compete for the binding of ephrin B2 to its natural receptor Eph B4. To this end, Eph B4-Fc was immobilized on a chip and the binding to ephrin B2 was measured in the presence of different concentrations of B11 or 2B1. […] However, the 2B1 antibody has no blocking effect (FIG. 5).
(§2) To study the affinity constants of the scFv was used the technique of surface plasmon resonance with the BIAcore X equipment (BIAcore). The ephrin B2-Fc was covalently bound to CM5 chip surface (GE Healthcare) upon activation of the carboxyl groups of the dextran matrix of the chip with 0.4 M EDC (1-ethyl-3-(-dimethylaminopropyl)-carbodiimide) and 0.1 M NHS(N-hydroxysuccinimide) in a 1:1 ratio for 7 minutes at a flow rate of 10 μl/minute. The ephrin B2-Fc protein was diluted to 10 μg/ml in 10 mM sodium acetate at pH 4 and 30 μl of this solution was passed over the chip surface at a flow rate of 10 μl/min in HBS-EP buffer (10 mM HEPES pH 7.4, 150 mM NaCl, 3 mM EDTA, 0.005% surfactant P20) (GE Healthcare). […]
In general terms: SPR reads the build-up and loss of mass on a sensor chip optically.

Test [2] addresses T1, ephrin B2-Fc (extracellular region of …). The test can be described thus: SPR competition: serial dilutions of scFv mixed with 0.2 uM ephrin B2-Fc, injected over immobilised Eph B4. As to the method: A. Graph showing the percent of binding of ephrin B2 to Eph B4. Binding inhibition tests of ephrin B2 to Eph B4 in the presence of scFv anti-ephrin B2 by surface plasmon resonance. Serial dilutions of scFv B11 (•) or 2B1 (∘) were mixed with ephrin B2 and injected over Eph B4 immobilized on a chip. The relative amount of ephrin B2 bound to Eph B4 was measured immediately after injection of each sample and plotted as a function of the concentration of scFv. […] B. The scFv B11 is capable of blocking the interaction between ephrin B2 and Eph B4 receptor in a cellular assay. Analysis of tyrosines phosphorylation of the Eph B4 receptor in HUVEC cells in response to stimulation with ephrin B2 overexpressed on the surface of HEK293 cells. HUVEC and HEK293 cells overexpressing ephrin B2 were cocultured for 20 minutes in the presence or absence of anti-ephrin B2 scFv. After Eph B4 receptor immunoprecipitation, it was analyzed the total amount of this protein (lower panel) and its level of phosphorylation (upper panel) by immunoblot.
The ability of scFv to inhibit the binding of ephrin B2 to its EphB4 receptor was analyzed by surface plasmon resonance competitive binding assay. Soluble Eph B4 (R&D) was conjugated to a CM5 chip (GE Healthcare) using the same protocol described above. […]

For test [3], the target named is T2, recombinant human ephrin B3-Fc (R & D) (human, UniProt Q15768 28-224).
T2 construct: Bought protein (R & D); also called EB3; not shown: Fc part of the bought fusion protein is not described
T2 sequence (looked up): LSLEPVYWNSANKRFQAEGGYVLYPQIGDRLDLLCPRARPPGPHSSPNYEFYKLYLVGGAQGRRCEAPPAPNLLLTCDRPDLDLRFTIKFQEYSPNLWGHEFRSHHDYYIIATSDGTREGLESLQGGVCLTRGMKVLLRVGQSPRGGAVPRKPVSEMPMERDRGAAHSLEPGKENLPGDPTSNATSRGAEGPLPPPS
Kind of test: immunoblot; periplasmic fraction of the scFv, detected with anti c-Myc and anti-mouse peroxidase conjugate. As to the method: (§3) Recombinant mouse proteins ephrin B1-Fc, mouse ephrin B2-Fc and human ephrin B3-Fc (R & D) were separated electrophoretically in polyacrylamide-SDS 10% gels and transferred onto nitrocellulose membrane (GE Healthcare). After blocking the membrane with PBS-3% skimmed milk powder for 1 hour, it was incubated with 1:5 diluted periplasmic fraction in PBS-3% powdered milk for 16 hours at 4° C. The secondary antibodies used were anti c-Myc (Sigma) at a 1:1000 dilution for 2 hours at room temperature and anti-mouse peroxidase conjugate (Sigma) diluted 1:5000 for 1 hour at room temperature. Visualization was performed by incubation with ECL reagent (ECL, “Enhanced Chemiluminescence”) (GE Healthcare).
(In general: A western blot detects proteins with antibodies after separation by electrophoresis.)

The target in test [4] is T3, recombinant mouse ephrin B1-Fc (R & D) (mouse, UniProt P52795 30-229).
T3 construct: Bought protein (R & D); also called EB1; not shown: Fc part of the bought fusion protein is not described
T3 sequence (looked up): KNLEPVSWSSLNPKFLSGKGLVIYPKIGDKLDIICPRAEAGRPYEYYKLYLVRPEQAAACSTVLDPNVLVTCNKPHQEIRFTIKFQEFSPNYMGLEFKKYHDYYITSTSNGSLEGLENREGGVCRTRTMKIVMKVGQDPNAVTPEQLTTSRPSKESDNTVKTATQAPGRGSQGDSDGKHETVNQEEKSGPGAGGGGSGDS
Described as above. Here is the method:
as §3

Test [5] deals with T1, ephrin B2-Fc (extracellular region of …). Kind of test: SPR (Biacore X), ephrin B2-Fc immobilised on CM5 chip, scFv at 30, 20, 10 and 7.5 uM, Langmuir 1:1 model. Here is the method:
as §1, §2

T1 sequence (P52799 whole entry, the tested form may be a part): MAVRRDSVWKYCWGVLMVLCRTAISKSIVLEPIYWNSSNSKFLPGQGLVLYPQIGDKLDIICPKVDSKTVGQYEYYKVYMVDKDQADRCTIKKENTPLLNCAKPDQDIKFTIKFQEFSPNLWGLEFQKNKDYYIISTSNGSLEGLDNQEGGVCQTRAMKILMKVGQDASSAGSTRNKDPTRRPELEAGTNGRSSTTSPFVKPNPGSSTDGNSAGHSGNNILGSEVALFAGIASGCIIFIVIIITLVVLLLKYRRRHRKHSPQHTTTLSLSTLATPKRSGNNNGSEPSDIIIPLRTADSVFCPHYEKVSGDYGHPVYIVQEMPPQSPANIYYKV

B1: scFv B11 (human anti-ephrin B2 single chain variable fragment) (scFv)
scFv: QVQLVQSGAEVKKPGASVRLSCEASGYTFTDYYIHWVRQAPGQGLEWMGWMNPSSGNTGYAQKFQGRVTMTRNTSISTAYMELSSLRSEDTAVYYCARDITGTATGFDYWGQGTLVTVSSGGGGSGGGGSGGGGSEIVLTQSPLSLPVTLGQPASISCRSSQSLLHSNGYNYLDWYLQKPGQSPQLLIYLGSNRASGVPDRFSGSGSGTDFTLKISRVEAEDVGVYYCMQGLLSPVTFGQGTRLDIKRTVAAPTAAAEQKLISEEDLNGAALEHHHHHH
notes: Expressed from pET28b in the E. coli periplasm with c-myc and a histidine tail; also called clone B11; B11 antibody
In general, Kd refers to the concentration at which binding is half-saturated. By IC50 is commonly meant the concentration that gives 50% inhibition. In test [1], B1 showed a Kd of 110 nM. Besides, the IC50 in test [2] was determined as 300 nM. In addition, the binding result in test [3] and in test [4] was “no binding” throughout.

B2: scFv 2B1 (human anti-ephrin B2 single chain variable fragment) (scFv)
scFv: QVQLVQSGGGLVQPGRSLRLSCAASGFTFDDYAMHWVRQAPGKGLEWVSGISWNSGSIGYADSVKGRFTISRDNAKNSLYLQMNSLRAEDTALYYCARGHRTSDAFDIWGQGTMVTVSSGGGGSGGGGSGGGGSQPVLTQPPSVSLAPGKTARITCGGDSIGLKSVHWYQQKPGQAPVLVMSSDSDRPSGIPDRFSGSNSGNTATLTITRVEAGDEADYYCQVWDSSSDHMVFGGGTKLTVLGQPKAAPSAAALEDYKDDDDKHHHHHH
notes: Expressed from pET28b in the E. coli periplasm with a histidine tail; also called clone 2B1; 2B1 antibody
In the case of B2, the Kd in test [5] stood at 630 nM. Further, the binding result in test [3] and in test [4] was “no binding” each time.

For the origin of these results see patent US20130287795A1 (FUNDACION CENTRO NACIONAL DE INVESTIGACIONES ONCOLOGICAS, published 2013).
